The record followed here is US20040038400A1 (TRUSTEES OF DARTMOUTH COLLEGE, published 2004).

The target in the assay is T1, WC-1 (Neurospora, UniProt Q01371 1-1167).
T1 construct: Tested either as native protein in Neurospora nuclear extracts or as 'full-length WC-1' made in reticulocyte lysate; also called White Collar-1; WC-1 protein
The assay can be described thus: EMSA supershift with nuclear extracts; complexes absent with extracts from wc-1 ER45 or wc-2 KO strains. The text has this: The presence of WC-1 and WC-2 in the LRE-bound complexes was confirmed by the absence of complexes in binding reactions performed using nuclear protein extracts from wc-1^ER45 (loss-of-function) or wc-2^KO strains (Collett, et al. (2002) Genetics 160:149). […] Because WC-1 and WC-2 are known to complex with FRQ (Denault, et al. (2001) EMBO J. 20:109; Cheng, et al. (2001) EMBO J. 20:101; Merrow, et al. (2001) EMBO J. 20:307), the presence of FRQ in the complexes bound to the LREs was also determined using FRQ antiserum and extracts from an frq^KO strain. FRQ was not in the dark- or light-induced complexes bound to the LREs, nor was FRQ necessary for the formation of the complexes.
Binding reactions using nuclear protein extracts contained 1× binding buffer, […] KCl, 0.1 μg poly(dI-dC), 1 μl probe, 0.5 μl of normal rabbit sera (Pocono Rabbit Farm, Canadensis, Pa.), and 3 μg of nuclear protein extract, which was added last to the binding reactions, in a total volume of 20 μl. In reactions that contained antisera, 1 μl anti-WC-1, 1 μl anti-WC-2, or 0.5 μl anti-FRQ was used. Binding reactions using in vitro translated proteins contained 1× binding buffer, 1 μg poly(dI-dC), 1 μl probe, and 6 μl of the in vitro translation reaction in a total volume of 20 μl. […]
(A gel shift assay detects complexes by their altered migration in electrophoresis.)

T1 sequence (Q01371 whole entry): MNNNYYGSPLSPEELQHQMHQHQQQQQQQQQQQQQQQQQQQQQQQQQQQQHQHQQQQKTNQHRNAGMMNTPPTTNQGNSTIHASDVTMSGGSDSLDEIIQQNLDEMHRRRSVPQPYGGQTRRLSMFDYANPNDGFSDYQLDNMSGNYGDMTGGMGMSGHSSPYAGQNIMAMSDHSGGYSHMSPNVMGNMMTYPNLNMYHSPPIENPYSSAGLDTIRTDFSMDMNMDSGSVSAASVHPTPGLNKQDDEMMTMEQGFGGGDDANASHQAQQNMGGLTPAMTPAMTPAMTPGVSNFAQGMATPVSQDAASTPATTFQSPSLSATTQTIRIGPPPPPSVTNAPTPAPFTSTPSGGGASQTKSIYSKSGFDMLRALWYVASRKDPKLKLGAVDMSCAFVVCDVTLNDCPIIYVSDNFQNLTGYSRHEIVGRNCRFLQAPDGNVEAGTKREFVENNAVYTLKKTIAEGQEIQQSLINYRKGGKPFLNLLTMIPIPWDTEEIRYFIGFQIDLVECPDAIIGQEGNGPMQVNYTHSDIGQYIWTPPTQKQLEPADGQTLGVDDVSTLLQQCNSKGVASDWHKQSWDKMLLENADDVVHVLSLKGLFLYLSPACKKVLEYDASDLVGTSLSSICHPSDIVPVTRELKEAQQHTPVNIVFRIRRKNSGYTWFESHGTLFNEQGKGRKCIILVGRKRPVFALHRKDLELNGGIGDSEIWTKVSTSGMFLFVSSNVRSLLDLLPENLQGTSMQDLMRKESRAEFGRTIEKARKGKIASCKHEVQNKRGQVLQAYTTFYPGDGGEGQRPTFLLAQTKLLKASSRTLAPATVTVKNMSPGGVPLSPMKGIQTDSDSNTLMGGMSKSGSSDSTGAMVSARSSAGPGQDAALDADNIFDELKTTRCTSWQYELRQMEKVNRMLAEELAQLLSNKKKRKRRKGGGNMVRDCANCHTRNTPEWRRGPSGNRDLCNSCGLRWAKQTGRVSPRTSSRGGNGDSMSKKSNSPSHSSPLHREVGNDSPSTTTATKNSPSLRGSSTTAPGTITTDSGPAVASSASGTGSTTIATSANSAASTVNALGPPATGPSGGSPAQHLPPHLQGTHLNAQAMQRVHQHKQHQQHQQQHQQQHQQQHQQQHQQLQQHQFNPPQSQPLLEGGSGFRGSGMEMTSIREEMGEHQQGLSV

B1: WC-2 (other, Neurospora, UniProt P78714 1-530, looked up)
chain: MSHGQPPPGSSMYGFGAMGMGSGMGSGMGSGMGTGMGTGMGTGMSASQMTSDPQDMMSLLDTSVFPGFDGMSMSLDVGDSMSNPFTPVSVPPPLPAGNAGPSHVGVCGGHGAPDQLFSPDDLIATSMSSAGPMIATPTTTTSGPSGGPSSGGGSTLTEFTKRRNWPAKVVEELQDWEHILDANGRIKHVSPSVEPLTGYKPPEIIDLFLRDLIHPDDVGVFTAELNEAIATGSQLRLFYRFRKKDGNWTIFETVGHAHIAAAKFAPNPQNQSPFCQAVFMMARPYPTKNAGLLDSFLEHKIENERLKRRIAELRREEQEEQEESHRTWRMSQEGRSDVTPSDDTATQMGMTPFYIPMNAQADVMMPPPSQPASSLNIALTRENLEGIAGSRPDSIREKMLRYEGNHADTIEMLTGLKYQEGERSHGITTGNASPTLIKGDAGIAIPLDRDPRTGEKKKKIKVAEEYVCTDCGTLDSPEWRKGPSGPKTLCNACGLRWAKKEKKKNANNNNNGGGIGGHNDIHTPMGDHMG
notes: Transcription factor; Tested either as native protein in Neurospora nuclear extracts or as 'full length WC-2' made in reticulocyte lysate; also called White Collar-2; WC-2 protein
B1: the binding result was “binds”.
